Consider two molecules from doi:10.1101/2023.09.28.559889 (bioRxiv, 2023).

One may read the stoichiometry N as a count of units in the complex or per binding partner.

Series [1] deals with NatT toxin (PA1030), His-tagged, co-expressed with NatR in E. coli (P. aeruginosa) (UniProt Q9I4U4). Nature of the series: mass photometry.
For series [2], the target named is NatR antitoxin (PA1029), co-expressed with His-tagged NatT in E. coli (P. aeruginosa). Kind of series: crystal structure.
Series [3] concerns the molecule itself. Nature of the series: crystal structure.

“NatR antitoxin (PA1029), co-expressed with His-tagged NatT in E. coli (natural protein)”: the stoichiometry N in series [1] and in series [2] was 2 throughout.

B1: NatT toxin (PA1030), His-tagged, co-expressed with NatR in E. coli (enzyme)
chain: SEIWRQCKGERHIRPLQGRLVRLVESQEQVATLQLVDTLEEQALLEELLESSKPPVPADAEPLHYLLKTPFRYPPLRWGSRFGRRHEPSLFYAALKLETAMAESAYYRCVLWSGMVVPPPSGRILSEHASFEAGWKVERGIRLQAPPFSDHEAALTDIADYRAPQELGSAMRSAGVQAFEYRSARCPERGCNVALFTPAAFTEKRPRNLTPWLCETTAGYVAFKPAHVPGSPKIFSWELFLVDGKLPHPA
Consider B1, for which, in series [3], the “stoichiometry N” value is 2.
